Reference: the nanobody polyreactivity screen of Harvey et al. (2022)

Assay: yeast display, Sf9 membrane polyspecificity reagent, FACS + sequencing; frameworks hold sequencing errors
Outline: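 After 36–48 hours of galactose induction, yeast (Saccharomyces cerevisiae BJ5465) displaying a synthetic nanobody library were stained at 4 °C for 1 hour with 10% biotinylated, detergent-solubilized Sf9 membrane reagent. Streptavidin microbeads enriched the stained cells before FACS sorting into low and high (top ~1%) gates on anti-HA and streptavidin fluorescence. Each clone's polyreactivity label reflects its gate of origin.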

| Sequence | polyreactivity (PSR sort gate) |
| --- | --- |
| QVQLVESGGGLVQAGGSLRLSCAASGNIFSSNDMGWYRQAPGKQRELVAANTRSGGSTYYADSVKGRFTISRDNAKNTLYIQMNSHTPEDTAVYDGAGRPYPRNSWGYDDWGQGTQVTVSS | high polyreactivity |
| QDQHGESGGGLVQAGGSLRLSCAASGYTFLRNDMGWYRQPHGKVRELVAAISYSGGGTYYADSVKGRFTISRDNAKITVYLQMNSLKPEDTAVYYCNVAQRYYGNFFSSRYEYWGQGTQVTVSS | low polyreactivity |
| QVQLVESGGGLVQAGGSLRLSCAASGSTFPGYAMGWYRQAPGKERELVASIYTGGSTYYADSVKGRFTISRDNAKNTVYLQMNSLKPEDTAVYYCAADSYNVSSLLYYWGQGTQVTVSS | low polyreactivity |
| QVQLVESAGGLVQAGGSLSLSCAASAFTYVCNRMGWNRQAPGKERELVAAITGSGSTNYADSVKGRFTISRDNAKNTVYLQMNSLKPEDTAVYYCATSDRQVKYDYWGQGTQVPVSS | low polyreactivity |
| QVQLVESGGGLVQAGGSLRLSCASSGRTFSYYAMGWYRQAPGKERELVAAISTSGGSTYYADSVKGRFTISRDNAKNTVYLQMNSLKPEDTAVYYWAASPYLRFLYGGFGYWGQGTEVTVSS | high polyreactivity |
| QVQLVESGGGLDQAGGSLRLSCAASGSTFLHYAMGWYRQAPRKERELVAAISFSGVRTYYADSVKGRFTISRDNAKNTVYLQMNSLKPEDTAVFYCAADGHHADYDYWGQGTQVTVSS | low polyreactivity |
| QVQHVESGGCLVQAGRSLRLSCAASGRTFFPYGMGWDRQAPAKEREFVATISWSGGSTHYADSVKGRFTISRDNAKYTVYLEMNSLKPEDTAVYFCAAGNSLYWYNSGNYWGQGTQVTVSS | low polyreactivity |
| QVQLVESGGGLVQAGGSLRLSCAASGRIFVSYAMGWYRQAPGKERELVAAISRGGSTYYADSVKGRFTISRDNAKNTVYLQMNSLKPEDTAVYYCAARPSYRYGYWGQGTQVTVSS | high polyreactivity |
| QVQLVESGGGLVQAGGSLRLSCAAYVRIFGYYAMGWYRQAPGKERELVAGISARGGSTYYADSVKGRLTISRDNAKNTVYLQMNSLKPEDTAVYYCAAYYLWPGYLFRPYDYWGHGTQVTVSS | low polyreactivity |
| QDQLVESRGVIVQAGGSLRLSCAASGRIFSVNAMGWYRQAPGKERELVAAITGSGTITYYADSVKGRFTISRDNAKNIVYLQMNSLKQEDTAVYYCAARPVLRYYAGYYYWGQGTQVTVSS | high polyreactivity |
| QDQLVESGGGLVQTGGSLRLSWAASGSTFYNTVMGWYRQAPGKERELVAAINSGGRTYYADSVKGRFTISRDNAKNTVYLQMNSLNPEDTAVYYCAVGYGRAARMDYWGQGTQVTVSS | high polyreactivity |
| QVQLVESGGGLVQAGGSLRLSCAASVSTIGYYAMGWYRQAPGKEWELVAAITWSGDSTYADSVKGRFTISRDNAKNTVYLQMNRLKPEDTAVYYCARRGFLGHWPRPSYDYWGQGTQVTVSS | low polyreactivity |
| QVQLEESRGGVVQAGGSLRLSCAASGSIITVYALGWERQAPGQERELVAGISRGGGTYYADSVTGRFTISRDNAKNCVYLQMNSLKPEDTAVYYCAAQIELWPYGIYQSGMYYWGQGTQVTVSS | low polyreactivity |
| QVQLVESGGGLVQAGGSLRLSCAASGYIFNRYVMGWYRQAPGKERELVAAITWRGGTTYADSVKGRFTISRDNAKNTVYLLMNSLKPEDTAVYYCAARRYPFEYDYWGQGTQVTVSS | high polyreactivity |
| QVQLVESGGGLVQAGGSLRLSCAASGFTFSFYAMGWYRQAPGKERELVATISSGGSTTYADSVKGRFTISRDNAKNTVYLQMNSLKPEDTEVYYCAARYGRVRNYRYDYWGQGTQVTVSS | high polyreactivity |
| QVQLVESGGGLVQAGGSLRLSCAASGSIQGYVMGWYRQAPGKERELVAAITNGGSTYYADSVKGRFTISRDNAKNTVYLQMISLKPEDTAVYYCAKRKFRWPYQGSYSYIPFGYWGQGTQVTVSS | high polyreactivity |
| QVQLVESGGGLVQAGGSLRLSCAASGSIFRWYAMGWYRQAPGKERELVAAITGSGGRTYYADSVKGRFTISRDNAKNTVYLQMNSLNPEDTAVYYCATRYGREDYWGQGTQVTVSS | high polyreactivity |
| QVQLVESGGGLVQAGGSLRLSCAASGRIFINNAMGWYRQAPGKEREFVAAITSGGRTYYADSVKGRFTISRDNAKNTVYLQMNSLKPEDTAVYYCAARYYRQYTRHYGYGYWGQGTQVTVSS | high polyreactivity |
| QVQLVESGGGLVQAGGSLRLSCAASGRIFYGYAMGWYRQAPGKERELVAAISKSGTRTYYADSVKGRFTISRDNAKNTVYLQMNSLKPEDTAVFYCNARGYPYDTYNEYYYWGQGTQVTVSS | high polyreactivity |
| QVQLVESGGGLVQAGGSLRLSCAASGSTFSRYAMGWYRQAPGKERELVAAISYSGDSTYYADSVKGRFTISRDNAKNTVYLQMNSLKPEDTAVYYCNVYSHYRGYYWGQGTQVTVSS | high polyreactivity |
| QVQLVESGGGLDQAGGSLRLSCAASGIIFRSNAMGWYRQAPGKERELVAAITGRGTRTYYADSVKGRFTISRDNAKNTVYLQMNSLKPEDTAVDYCNTGQTRGMGYWGQGTQVTVSS | high polyreactivity |
| QVHVVESGGGLVQAGGSLGLSCAASGITFTAYAMGWYRQAPGKERELVATINSTGITNYADSVKGRFTISRDNSKNTVFLQMNSLKPEDTAVYYCAADLLDISSYDGMDYWGQGTQVTVSS | low polyreactivity |

| Sequence | polyreactivity (PSR sort gate) |
| --- | --- |
| QVQLVESGGGLVQAGGSLRLSCAASGSIFQYNVMGRYRQEPGKEREFVADISSSGGSTYYADSVKGRFTISRDNAKNTVYLQMNSLKPEATAVYYCNARSKVAYDRHYYWGQGTQVTVSS | low polyreactivity |
| QVQLVESGGGLVQAGGSLRLSCAASGRTFKKYAMGWYRQAPGKERELVAAITGSGGSTYYADSVKVRYTISRDNAKNTVYLQMNSLKPEDTAVYYCAAYAYGVGHSQDGGNYWGQCTQVTVSS | low polyreactivity |
| QVQLEESGGGLVQAGGSLRLSCAASGSIFGNAMGWYRQAPGKEREFVAAISSSGSSTYYADSVKGRFTISRDNAKNTVYLQMNSLKPEDTAVYYCAKRRRSADPKYDYWGQGTQVTVSS | high polyreactivity |
| QDQLVESGGGLVQAGGSLRLSCAASGSIFWYYGMGWYRQAPGKERELVAAISSGGSTNYADSVKGRFAISRDNAKNTVYLQMNSLKPEDTAVYYCAVRFTFPRYPASYSRYYYWGQGTQVTVSS | high polyreactivity |
| QVHLVESGGGLVQAGGSLRLSCAASGRTFYTYAMGWYRQATGKERELVAVIRRDGSTSYADSVKGRFTISRDNAKNTVFLQKNSLKPEDTAVYYCAVTRRGEYYWGQGTQVTVSS | high polyreactivity |
| QVQLVDSGGGLVQAGGSLRLSCAASGFIFQYYAMGWYRQAPGKEMGLVAAISFSGGSTYYADSVKGRFTISRDNAKNTVYLQMNSLKPEDTAVYYCAAEVYSVGDYSGHDYYWGQGTQVTVSS | low polyreactivity |
| QVQLVESGGGLVQAGGSLRLSCAASGSTFALYAMGWYRQAPGKERELVAVITSGGSTYYADSVKGRFTISRDNAKNTVYLQMNSLKPEDTAVYYCAARRHVRKGPLGYWGQGTQVTLSS | high polyreactivity |
| QVQLVESGGGLVQAGGSLRLSCAASGSIFGVNALGWYRQAPGKERELVASITGGDSTNYADSVKGRFTISRDNAKNTVYLQMNSLKPEDTAFYYCAKDHYYRYEEGDYWGQGTQVTVSS | low polyreactivity |
| QVQLVESGGGLVQAGGSLRLSCAASGLTFCPNAMGWYRQAPGKEREFVASISISGRTYYADSVKGRFTISRDNAKNTVYLLMNSLKPEDTAVYYCAARYVRSGLYRKYDYWGQGTQVTVSS | high polyreactivity |
| QVQLVESGGGLVQAGASLRLSCAASGRTFRYYAMGWYRQEPGKERELVAAITSGGSTYYADSVKGRFTISRDNAKKTVYLQMNSLKPEVTAVYYCAAVPAGLWGTYPQFRYGYWGQGTQVTVSS | high polyreactivity |
| QVQLVESGGGLVQAGGSLRLSCAASGSIFGVYAMGWYRQAPGKERELVAAISSRGSSTYYADSVKGRFTISRDNAKNTVYLQMNSLKPEDTAVYYCAARPGIRSYPPGYGYWGQGTQVTVSS | high polyreactivity |
| QVQLVESGGGLVQAGGSLRLSCAASGSTFDYYAMGWYRQAPGKERELVAAISRSGGRTYYADSVKGRFTISRDNAKNTVYLQMNSLKPEDTAVYYCAADKPVIGTYSRYDYWGQGTQVTVSS | high polyreactivity |
| QVQLVESGGGLVQAGGSLRLSCAASGITFGWYAMGWYRQAPGKERELVAAISGRGGRTYYADSVKGRFTISRDNAKYTVYLQMNSLKPEVTAVYYCAARARRWSYITGSYVLIEYEYWGQGTQVTVSS | high polyreactivity |
| QVQLVESGGGLVQAGGSLRLSCAASGRTFSGYAMGWYRQAPGKERELVAAISSGGGSTYYADSVKGRFTISRDNAKNTVYLQMNSLKPEDTAVYYCAADGYPGDYDYWRQGTQVTVSS | low polyreactivity |
| QVQLVESGGGLVQAGGSLRLSCAASGFIFADYDMGWYRQAPGKERELVAAISWSGGTTYYADSVKGRFTISRDNAKNTVYLQMNSLKPEDTAVYYCAAYWWAVYSVVTGARYDYWGQGTQVTVSS | high polyreactivity |
| QVQLVESGGGLVQAGGSLRLSCAASGSIFQHYAMGWYRQAPGKEREFVAAISGRGGGTYYADSVKGRFTISRDNAKNTVYLQMNSLKPEDTAVYYCAADYRGSYWRYYYWGQGTQVTVSS | high polyreactivity |
| QVQLLESGGGLVQAGGSLRLSCAASGFTFYRYAMGWYRQAPGTERELVAVISRGGNTYYADSVKGRFTISRDNAKNTVYLQMNSLKPEDTAVYDCAVYYPRGVSGGRFTRYDYWGQGTQVTVSS | high polyreactivity |
| QVQLVESGGGIVQAGGSLRLSCAASGIIFSANAMGWYRQAPGKERELVAAISRAGSTNYADYVKGRFTISRDNAKNTVYLQMNSLKPEDTAVYYCAAGGGFYFIWTMDYWGQGTQVTVSS | low polyreactivity |
| QVQLVESGGGLLQAGGSLRLSCAASGSNFVAYAMGRYRQAPGKERELVAAITYSGGGTYYADSVKGRCTISRDNAKNTVYLLMNSLKPEDTALYYCNAVGGIYDFDYCGQGTQVTVSS | high polyreactivity |
| QVQLVESGGGLVQAGGSLRLSCAASGFIIGLYAMGWYRQAPGKERELVAAISGSGGSTYYADSVKGRFTISRDNAKNTVYLQMNSLKPEDTAVYYCNGAHGVHTYVYRYCYWGQGTQVTVSS | low polyreactivity |
| QVHLVESGGGLVQAGGSLRLSCAASGFIFISNSMGCYRQEPGKERELVARISDTDRTHYADSVKGRFTISRDNAKNTVYLQMNSQNPEDTAVYSCATDQSLLDKVYYDVQYDFWGQGTQVTVSS | low polyreactivity |
